Broadly, the Kd is the equilibrium constant for the complex coming apart. A higher Kd goes with a looser complex.

For 2 substances, Kd results are on record in patent US20230183339A1.

The assay addresses FcRn. Nature of the assay: BIAcore at pH 6.0.

Consider wild-type irrelevant IgG1 (antibody), for which the Kd was 1640 nM.
The result for wild-type irrelevant IgG4 (antibody) reads 3640 nM.
